In the DeepSol protein solubility set:

experiment: soluble on expression in E. coli; label from the status in PepcDB or PDB records

Sequence | soluble on expression in E. coli
MNIGVIILAAGEGKRFGGDKLLAKIDNTPIIMRTIRIYGDLEKIIIVGKYVNEMLPLLMDQIVIYNPFWNEGISTSLKLGLRFFKDYDAVLVALGDMPFVTKEDVNKIINTFKPNCKAVIPTHKGERGNPVLISKSLFNEIEKLRGDVGARVILNKIKIEELCFIECSEGVLIDIDKKEDLMRLRDFHPLEHHHHHH | soluble
MNIKFKPVEPADRSAITTITFSSVARICDLAFSNLYCWSFVYGTSWAIVEGCLIIRFKPKSRSHPVYLFPVGADPEQVVAAAHRLKAEVVHEDYPLIFMGVTPDIHRCIEEHCSAEYYFIEDEAYCDYIYERESLATLSGKKLQAKRNHINKFVSLYPDYTYDPVKDSDAEECLMLAHLWLDSRGDQDGRELEVEMVERAFRHRQELGLSGGVLRVGGRVVAFCLGSPINTDTFGVHIEKADAMVEGAFAMINREFARSIPDTFRYINREEDLGLPGLRQAKLSYRPAILLPKQTAILRRDHDRIQA | not soluble
MNISIRAETPGDIDAIAHLTEAAFRNETHSSHTEQYIVDALRRAGALTLSLVAEANGQVIGHIAASPVTIDGEAGDWYGLAPLSVAPGRQRQGLGSQLVRRLLTELRLLPAGGCVVLGEPTYYSRFGFRVESGLALPGVPAEYFQAQSFSGRMAQGIVAFHAAFDASG | not soluble
MNIVEPLRDKDDIQAMKDYLSSWNEKYYMLFLLGINTGFRVGDILKLKVKDVQGWHIKVREQKTGKYKSIKMTRPLKNELREFVKDKELHEYLFQSRVGKNKALSYKTVYWFLKRAAEDLGIDNVGTHTMRKTFGYHYYKKYKNVADLMSLFNHSSPAVTLIYICVRQDELDTKMSNFSL | not soluble
MNIVLMGLPGAGKGTQAEQIIEKYEIPHISTGDMFRAAIKNGTELGLKAKSFMDQGNLVPDEVTIGIVHERLSKDDCQKGFLLDGFPRTVAQADALDSLLTDLGKKLDYVLNIKVEQEELMKRLTGRWICKTCGATYHTIFNPPAVEGICDKDGGELYQRIDDKPETVKNRLDVNMKQTQPLLDFYSQKGVLKDIDGQQDIKKVFVDINDLLGGLR | soluble
MNIYVLMKRTFDTEEKIVIKNGAIYDGEAEFIINPYDEYAIEEAIQVRDAQGGEVTVVTVGGEDSEKELRTALAMGCDKAVLINIEDDVENGDQFTTAKVLAEYLKDKDADLILGGNVAIDGASGQVGPRVAEALNIPYVTTITKLEIDGTNVKIERDVEGDTEVVETSLPVLVTAQQGLNEPRYPSLPGIMKAKKKPLEELELDDLDLEEDDVEAKTKTIEIYLPPKKDAGKVLQGELQDQVKELVSLLHTEAKVI | not soluble
MNKIAIQKPNIPENLQTADFHDAVTQDDVISMHLFEDCTICGEDIERLCVEKTVFRNVVFIDVSFRHIELTDVIFEKCDLSNADFSGAVIHRTSVKQSKMVGMNVAEATLRNVSFEECHGHFSSFSYSNMKQVRFDHCALMQSECSDTVLQQTHFDGCELEGASFTGTSLQNMDISTCRFEQLHVSLDKLKGCKIAPEHAIAFARALGAVIVLEHHHHHH | soluble
MNKILIAAASSGAGKTTVTLGIMQALKKRGFAVQPFKVGPDYIDTNYHQAITGVASINLDSFLIDDDEMLASLFQKHGESADISVIEGVMGLFDGLGTDRDNASTSFIAKCTKTPVILVVDGKAISTSAAAIVDGFNRFDPELKIAGVIINRVASENHFSLIKGAIERYTDVPVLGYLPKNAAVALPERHLGLVPQEEMTELEAKWELLSDLITTHVDLDKLLEISKSSENLSTSKAQMKVADFSGLRVAYALDAAFHFYYQDNLDLIRLTGAELIPFSPLEDNEVPEADFIYIGGGFPEIFAKQLNDNRSMRKSILAAHEKGIPIYAECGGLMYLGSSLEMEGKQYEMVGVFNGISKMTTRLRKFGYCIAEPLEETLIGKKGMSIRGHEFHHSVFETTETACMKLSKKRDGEIVKEWRGGYQKGNTFASYLHIHFYQNPAILMQMFGAGKRLEHHHHHH | soluble
MNKISPLGSNWNEFEQQIFNEEEIRESNLRVALIKELITSRQQLGISQKQLETLSGVKQPMIARIEKGQTNPQLETLLKLLAPLGKTLSIVPLRVKNA | not soluble
MNKKIFVIGSGLSGLVASTELLKKGYHVTMLDQEPRQAIGGQAYWSFGGLFLVNSKIQQRLGVKDSYELALNDWLGSAQFDRPDDEDYWAKQWAEAYVRFATFEKENYLKEMGVRLTPILGWAERGGASASGHGNSVPRFHITWGTGPGLVEPFSRFVLEKEQEGQFKFLPRHQVTDIGIEHNQVTHISGIILEPSDVERGEKSSRTVIDTFHYEVDELLITSGGIGANMPLIRKYWPKRLGNPPKTMIQGVPDSTDGHLIQVTEDAGANIVNKDRMWHYTEGIQNHSPIWSNHGIRIIPGPSSMWFDATGKRMAAPDYPGFDTLHTLETIMKTGYDYSWFILTEDIIKKEFVLSGSEQNPDLTDKDIKLLLQERLGSKATSPVEAFMDKGPDFILADDLGMLVRKMNDLAGNDLLNYETIKHEIKARDLQIDNPFTKDPQVAFINNARQFLGNKLVRTAKPHKILSGRNGRLIAVKLNIISRKTLGGIQTNLDGQALNPSMQPIQGLYAAGEASGFGGGGVHGYRALEGTFLGGCIFSGIRAAEGIHHHIQLEHHHHHH | soluble
MNKNLHPIFAKRIQQVLDENGWSMADLSRRVMLSHTSVRKWASGTSVASGERLKRLSAVTGRPEYWFFMEPGDESEGERAEPKPRVLDEKEETLLSLFNQLPEAEKLRVILHTKAVLQEMDLLKNNVFDLINDLKK | not soluble
MNKYEEVLQELIKASGIEGAAIVSLDGLPIASVLPANAEEDKVAAMSAAILSLGERVVEELGKGTMEQITIKGDKGYVVITEIGQDAVLTTLAGQDSKLGLIYMEIKKAQQKLKELI | not soluble
MNLFYNKEAVGDVAFLQINPTEGEYNYVTQGDVVEIQNDGEVVGYNIFNASNKATLTGNGHIKLTETLVQAFQKAIEAAGFTYKLDADFTPKFVVGYVETKDKHPDADKLSVLSVDVATEKLQIVCGAPNVEAGQKVVVAKVGAVMPSGMVIKDAELRGVASSGMICSMKELGLPNAPQEKGIMVLSDDYTVGQSFFEVLEHHHHHH | soluble
MNLKEFIIPAIDLMEGKAVRLYKGDFNKVKVYSERPWELAKNFSDLGFKRLHVVDLEGAEGGKPKNLEVIRKIRENFEGEVEVGGGIRSYEVAKALFDEGIDFVVIGTLAYKNKEEFLKILENFPNRVILAIDSKQGKVAIGGWKEETAVSPEEFAKEYENYPIWGYLYTVIERDGSLEGVDVEPYKEIKKHVKKPVIASGGVSSLEDIKKLYGIVEGVVVGKAIYEGRITLEDLQNF | soluble
MNLLETVEQDTMPTHYKQMTQVEMIARVTEIKAQLGENLFIPCHHYQKDEVVPFADAIGDSLQLAQIAAQNKKAKHIVFCGVHFMAETADMLTTSEQIVTLPDMRAGCSMADMADIHQLTNAWPKLQTLFGDTILPVTYINSTAAIKSFVGEHGGTTVTSSNATKIVSWALEQKERIFFLPDQHLGRNTAFELGIPLEHMAIWNPIKNELEYEGNLDDCKVILWKGYCSVHQHFTVKNIENIRKNHPNMRIIVHPECTHEVVSLADDSGSTKKIVTEINNAAPGTEWAVGTEANLVGRIIQENPDKKIVSLNPFMCPCMTMNRIDLPHLLWTLEAIQNGEKRNQIKVDEQTTKFALKALERMLQLS | not soluble
MNLLPYQFVGEVVRGFGRGGKELGCPTANMDGTVVNGLPEGLPVGVYFGTAKLDGKSYKMAMSIGWNPQYQNEKKTVELHLIDYSGSDFYGKTLSAVIIGFIREMKSFESLDELKSAIAMDIKVARRGSVEQGKL | not soluble
MNLMLCCTPLQVLIARKIIELHPNEQFFGVMFGGVWDKKRTLYASKLAEVCSDSMNIDTGKDLKGFDFLKLMRQLKNKITHKGFDKVFLANLNSLWLQTYLSHVSFKELYTFDDGSDNIFPHPNLLREPGTFKYKLIKAFIGDKYSVNKLFKKIKKHYTVYPNYKNIVSNIEPISLWDNQIDCEIDGEVSFFIGQPLLNTKEENISLIKKLKDQIPFDYYFPHPAEDYRVDGVNYVESELIFEDYVFKHLSNKKIIIYTFFSSVAFNLLSHPNVEIRFIRTSIPRWQFCYDSFPDLGLTIYKEI | not soluble
MNLRTQKFHMYFKQWIELYKEGAVRPVTYQKYQMSHKHLVTLAPDLHMDELKRRTYQELINEFAANHEKQTTLDFHHHLKAAILDALDEGILEQDPTRKVVIKGTLEHHHHHH | soluble
MNLTHQDFNLFNREIFTFKQLKEQQTSAEIDALKQTYKQHWEKWKALNLAIAQGLPAELGITKPKIESWTNGWNLRSHFWAAYRSEQRQAENACLALLLNKKQFQVYLMFQHYKSEERTGSVVAYNQLLNRLEAWSQTIDCEGYYIWPQEEHELVDHLPLKDYLADEKQRKILEERIGNRSFQIGKLWFATEKLETIEEKSCQALQELAPLYNALSEK | not soluble
MNLTIIEFESNVLRDNPLNDPYKRRVGIIYPKDYEGRPILIYLSGYLSSSLTQINYNPLGEDMVSKVERLSNEGKMKGSVIVLPDMFTKVGGNQYINSSAVGMYEDFLVKELIPFLKDKFKSDKIGIFGHSSGGYGALILGMKYPNTIKAIADHAGDAYFEYVYLPTFPRAIEQLRRFKTPEEWLENYWKKENKQHREDLNTLNVVGMSAFYSPNNEKIELPFDLETGEILEDVWKKWLEKDPVRMVDKYADNLKMLKFIFIDVGKKDEFNIQYGSRTLHKKLQKYGINHYYEEFNDGHLHTNYRYDISLSLLEKKLTSE | not soluble
MNLTPGGNAPVPAQELRVRITSGGQVDASAFRLYADGKVQGDADMVFYGQPRNDDGTVSLVSEGQYSTFTVALNRLKPDVQKIAFTVTCDGGQTVSGLRNLSIDVEQGATGLVSGSVELSGRQEAALILGEFYRRNNDWKFRFVAQGFNGGLKPLAEHFGVNIADEPAPAAPTPPVVTPPPVETKISLSKVSLTKEKPAISLTKRDNFGEIRINLNWHRGSSKSGFAGMFGSKGIDLDLGAFVELQDGYKSVIQALGNAFGDYRDEPYVQLKGDDRTGDVSDGEWLHINGREWKHIREVLIYAFIYEGVPSWDKTDGVVTIHVPDQPPIETRLTEGENRRTLCAIARLVNENGAIKVERINQYFKGQDEMDRAFGWGFRWSAGSK | not soluble
MNNENERFEGFFSRVVEQVRTLVLVPICQENKSENASPVCSVSSRVQEVLGLAQAIRLEVVYYETVNINIPRPATLFGTGKVKALTHYISEYDIELVIVDHFLTPVQQRNLEKLWNCKVIDRTALILEIFGDRARTKEGVLQVELAHLSYQKSRLVRSWTHLERQRGGHGFLGGPGETQIEADRRLLQEKIIRIRRELEKVIKTRALHRAKRKKTSHPIVALVGYTNTGKSTLFNRLSGANVLAKDMLFATLDPTLRKVVLPHGKTILLSDTVGFISHLPTHLIAAFRATLEEVVEADLILHVRDMSDLDHRAHGQDVLEVLADLGIDIDDTEHIIEVWNKIDILDEHALNVLQTSARTRLNPAVMVSALMSDGLDQLLTAIEKRVFGEMQSIECLLRPHEMSLISWFYENSGEIMQEGHNDGSVTIRAMLTSEAKKRLDHIKQTMN | not soluble
